Measured values taken from paper doi:10.1101/2023.10.16.562645 (bioRxiv, 2023).

Target: the molecule itself
Experiment: SEC

B1: Bacillus subtilis YsiA (natural protein, B. subtilis, UniProt P94548 1-194, looked up)
chain: MKQKRPKYMQIIDAAVEVIAENGYHQSQVSKIAKQAGVADGTIYLYFKNKEDILISLFKEKMGQFIERMEEDIKEKATAKEKLALVISKHFSLLAGDHNLAIVTQLELRQSNLELRQKINEILKGYLNILDGILTEGIQSGEIKEGLDVRLARQMIFGTIDETVTTWVMNDQKYDLVALSNSVLELLVSGIHNK
- stoichiometry N: 2
